Where two headings read alike, the source gives them in different places.
Legend:
[1] = molecular target: HIV-1 Env of isolate Bal (HIV-1); assay: cell-based or functional assay
[2] = molecular target: HIV-1 Env of isolate JRFL (HIV-1); assay: cell-based or functional assay
[3] = molecular target: HIV-1 Env of isolate 55815.EC3 (HIV-1); assay: cell-based or functional assay
[4] = molecular target: HIV-1 Env of isolate 57128.VRC18 (HIV-1); assay: cell-based or functional assay
[5] = molecular target: HIV-1 Env of isolate 89.6 (HIV-1); assay: cell-based or functional assay
[6] = molecular target: HIV-1 Env of isolate 92UG037.8 (HIV-1); assay: cell-based or functional assay
[7] = molecular target: HIV-1 Env of isolate A07412VRC12A (HIV-1); assay: cell-based or functional assay
[8] = molecular target: HIV-1 Env of isolate AD8 (HIV-1); assay: cell-based or functional assay
[9] = molecular target: HIV-1 Env of isolate BZ167.ec9 (HIV-1); assay: cell-based or functional assay
[10] = molecular target: HIV-1 Env of isolate Bal (HIV-1); assay: cell-based or functional assay; remark: listed apart in the source
[11] = molecular target: HIV-1 Env of isolate Bal.EC1 TC (HIV-1); assay: cell-based or functional assay
[12] = molecular target: HIV-1 Env of isolate CAM0015BBY.EC3 (HIV-1); assay: cell-based or functional assay
[13] = molecular target: HIV-1 Env of isolate CM240.EC1 (HIV-1); assay: cell-based or functional assay
[14] = molecular target: HIV-1 Env of isolate CM243 (HIV-1); assay: cell-based or functional assay
[15] = molecular target: HIV-1 Env of isolate GS-015.EC12 (HIV-1); assay: cell-based or functional assay
[16] = molecular target: HIV-1 Env of isolate GXC (HIV-1); assay: cell-based or functional assay
[17] = molecular target: HIV-1 Env of isolate GXE (HIV-1); assay: cell-based or functional assay
[18] = molecular target: HIV-1 Env of isolate IIIB (HIV-1); assay: cell-based or functional assay
[19] = molecular target: HIV-1 Env of isolate JRCSF (HIV-1) (UniProt P20871); assay: cell-based or functional assay
[20] = molecular target: HIV-1 Env of isolate JRFL (HIV-1); assay: cell-based or functional assay; remark: listed apart in the source
[21] = molecular target: HIV-1 Env of isolate KNH1088.EC5 (HIV-1); assay: cell-based or functional assay
[22] = molecular target: HIV-1 Env of isolate KNH1144.EC1 (HIV-1); assay: cell-based or functional assay
[23] = molecular target: HIV-1 Env of isolate N1 1046.e3 PV (HIV-1); assay: cell-based or functional assay
[24] = molecular target: HIV-1 Env of isolate NL4-3 (HIV-1); assay: cell-based or functional assay
[25] = molecular target: HIV-1 Env of isolate PBL286.VRC36aPV (HIV-1); assay: cell-based or functional assay
[26] = molecular target: HIV-1 Env of isolate R2 (HIV-1); assay: cell-based or functional assay
[27] = molecular target: HIV-1 Env of isolate Z2Z6 (HIV-1); assay: cell-based or functional assay
gp140Con-s (HIV-1) [28] = assay: ELISA (OD 450 nm) on Cons gp140 (gp140Con-s), sCD4Fc titrated [A]
gp140Con-s (HIV-1) [29] = molecular target: gp140Con-s (HIV-1)

Sequence of HIV-1 Env of isolate JRCSF (HIV-1) (P20871 32-848 limits assumed): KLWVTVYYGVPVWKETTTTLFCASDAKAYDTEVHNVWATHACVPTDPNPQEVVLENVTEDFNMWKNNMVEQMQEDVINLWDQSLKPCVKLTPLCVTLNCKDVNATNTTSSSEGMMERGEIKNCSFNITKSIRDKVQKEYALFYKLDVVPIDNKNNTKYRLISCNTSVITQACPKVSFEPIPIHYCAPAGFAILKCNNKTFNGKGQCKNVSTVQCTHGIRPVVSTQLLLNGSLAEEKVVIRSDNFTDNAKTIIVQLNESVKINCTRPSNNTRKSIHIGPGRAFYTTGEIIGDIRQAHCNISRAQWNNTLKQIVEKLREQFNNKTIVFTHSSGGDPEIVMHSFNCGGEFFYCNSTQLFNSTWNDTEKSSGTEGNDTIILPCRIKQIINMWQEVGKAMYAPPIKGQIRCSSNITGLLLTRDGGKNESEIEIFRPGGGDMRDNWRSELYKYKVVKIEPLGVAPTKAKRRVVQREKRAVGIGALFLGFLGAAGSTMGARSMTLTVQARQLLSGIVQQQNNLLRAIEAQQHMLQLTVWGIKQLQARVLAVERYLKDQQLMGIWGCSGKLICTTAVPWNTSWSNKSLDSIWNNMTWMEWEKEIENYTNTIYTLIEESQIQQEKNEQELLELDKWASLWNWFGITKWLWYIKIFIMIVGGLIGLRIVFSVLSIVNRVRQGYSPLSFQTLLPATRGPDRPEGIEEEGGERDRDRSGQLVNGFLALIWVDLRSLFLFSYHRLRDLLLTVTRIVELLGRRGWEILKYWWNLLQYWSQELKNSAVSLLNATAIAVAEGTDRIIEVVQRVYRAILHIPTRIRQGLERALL

## 4Dm2m (bispecific antibody)
[1]
  IC50, neutralization of pseudotyped HIV-1: 0.12 nM
  IC90, neutralization of pseudotyped HIV-1: 0.36 nM
[2]
  IC50, neutralization of pseudotyped HIV-1: 0.06 nM
  IC90, neutralization of pseudotyped HIV-1: 0.29 nM
[3]
  IC50, neutralization in TZM-bl cell-based assay: 0.084 nM
  IC90, neutralization in TZM-bl cell-based assay: 0.61 nM
[4]
  IC50, neutralization in TZM-bl cell-based assay: 0.4 nM
  IC90, neutralization in TZM-bl cell-based assay: 2.8 nM
[5]
  IC50, neutralization of pseudotyped HIV-1: < 0.021 nM
  IC90, neutralization of pseudotyped HIV-1: < 0.021 nM
[6]
  IC50, neutralization of pseudotyped HIV-1: 0.051 nM
  IC90, neutralization of pseudotyped HIV-1: 0.45 nM
[7]
  IC50, neutralization in TZM-bl cell-based assay: 0.75 nM
  IC90, neutralization in TZM-bl cell-based assay: 5.7 nM
[8]
  IC50, neutralization of pseudotyped HIV-1: 0.13 nM
  IC90, neutralization of pseudotyped HIV-1: 0.74 nM
[9]
  IC50, neutralization in TZM-bl cell-based assay: 0.077 nM
  IC90, neutralization in TZM-bl cell-based assay: 0.5 nM
[10]
  IC50, inhibition of Env-mediated cell-cell fusion: 4.1 nM
  IC50, neutralization of pseudotyped HIV-1: 0.15 nM
  IC90, neutralization of pseudotyped HIV-1: 0.5 nM
[11]
  IC50, neutralization in TZM-bl cell-based assay: 0.057 nM
  IC90, neutralization in TZM-bl cell-based assay: 0.22 nM
[12]
  IC50, neutralization in TZM-bl cell-based assay: 0.72 nM
  IC90, neutralization in TZM-bl cell-based assay: 7.4 nM
[13]
  IC50, neutralization in TZM-bl cell-based assay: 0.45 nM
  IC90, neutralization in TZM-bl cell-based assay: 3.7 nM
[14]
  IC50, neutralization of pseudotyped HIV-1: 0.29 nM
  IC90, neutralization of pseudotyped HIV-1: 1.2 nM
[15]
  IC50, neutralization in TZM-bl cell-based assay: 0.022 nM
  IC90, neutralization in TZM-bl cell-based assay: 0.17 nM
[16]
  IC50, neutralization of pseudotyped HIV-1: 0.61 nM
  IC90, neutralization of pseudotyped HIV-1: 4 nM
[17]
  IC50, neutralization of pseudotyped HIV-1: 0.83 nM
  IC90, neutralization of pseudotyped HIV-1: 8.2 nM
[18]
  IC50, neutralization of pseudotyped HIV-1: 0.037 nM
  IC90, neutralization of pseudotyped HIV-1: 0.1 nM
[19]
  IC50, neutralization of pseudotyped HIV-1: 0.29 nM
  IC90, neutralization of pseudotyped HIV-1: 3 nM
[20]
  IC50, inhibition of Env-mediated cell-cell fusion: 3.6 nM
  IC50, neutralization of pseudotyped HIV-1: 0.14 nM
  IC90, inhibition of Env-mediated cell-cell fusion: 8.8 nM
  IC90, neutralization of pseudotyped HIV-1: 0.39 nM
[21]
  IC50, neutralization in TZM-bl cell-based assay: 0.48 nM
[22]
  IC50, neutralization in TZM-bl cell-based assay: 0.081 nM
  IC90, neutralization in TZM-bl cell-based assay: 1 nM
[23]
  IC90, neutralization in TZM-bl cell-based assay: 27 nM
[24]
  IC50, neutralization of pseudotyped HIV-1: 0.094 nM
  IC90, neutralization of pseudotyped HIV-1: 0.15 nM
[25]
  IC50, neutralization in TZM-bl cell-based assay: 2 nM
[26]
  IC50, neutralization of pseudotyped HIV-1: 0.028 nM
  IC90, neutralization of pseudotyped HIV-1: 0.43 nM
[27]
  IC50, neutralization of pseudotyped HIV-1: 0.14 nM
  IC90, neutralization of pseudotyped HIV-1: 1.1 nM

## 2G12 (antibody)
[5]
  IC50, neutralization of pseudotyped HIV-1: 1.3 nM
  IC90, neutralization of pseudotyped HIV-1: 43 nM
[6]
  IC50, neutralization of pseudotyped HIV-1: 0.53 nM
[10]
  IC50, inhibition of Env-mediated cell-cell fusion: 38 nM
  IC90, inhibition of Env-mediated cell-cell fusion: > 67 nM
  IC90, neutralization of pseudotyped HIV-1: 41 nM
[14]
  IC50, neutralization of pseudotyped HIV-1; '-' = No significant neutralization at the highest antibody concentration (67 nM) tested: > 67 nM
  IC90, neutralization of pseudotyped HIV-1; '-' = No significant neutralization at the highest antibody concentration (67 nM) tested: > 67 nM
[16]
  IC50, neutralization of pseudotyped HIV-1; '-' = No significant neutralization at the highest antibody concentration (67 nM) tested: > 67 nM
  IC90, neutralization of pseudotyped HIV-1; '-' = No significant neutralization at the highest antibody concentration (67 nM) tested: > 67 nM
[17]
  IC50, neutralization of pseudotyped HIV-1; '-' = No significant neutralization at the highest antibody concentration (67 nM) tested: > 67 nM
  IC90, neutralization of pseudotyped HIV-1; '-' = No significant neutralization at the highest antibody concentration (67 nM) tested: > 67 nM
[18]
  IC50, neutralization of pseudotyped HIV-1: 1.5 nM
  IC90, neutralization of pseudotyped HIV-1: 9.3 nM
[19]
  IC50, neutralization of pseudotyped HIV-1: 0.58 nM
  IC90, neutralization of pseudotyped HIV-1: 9.3 nM
[20]
  IC50, neutralization of pseudotyped HIV-1: 3 nM
  IC90, inhibition of Env-mediated cell-cell fusion: 67 nM
[24]
  IC50, neutralization of pseudotyped HIV-1: 1.3 nM
[26]
  IC50, neutralization of pseudotyped HIV-1: 0.68 nM
  IC90, neutralization of pseudotyped HIV-1: 4.6 nM
[27]
  IC50, neutralization of pseudotyped HIV-1: 0.7 nM

## D1D2mFc (from UniProt P01730 26-203) (Fc fusion)
gp140Con-s (HIV-1) [28]
  EC50 (read off the curve): 0.3 nM

## VRC01 (antibody)
[3]
  IC50, neutralization in TZM-bl cell-based assay: 0.33 nM
  IC90, neutralization in TZM-bl cell-based assay: 2.6 nM
[4]
  IC50, neutralization in TZM-bl cell-based assay: > 167 nM
  IC90, neutralization in TZM-bl cell-based assay: > 167 nM
[5]
  IC50, neutralization of pseudotyped HIV-1: 0.37 nM
[6]
  IC50, neutralization of pseudotyped HIV-1: 0.33 nM
  IC90, neutralization of pseudotyped HIV-1: 3.8 nM
[7]
  IC50, neutralization in TZM-bl cell-based assay: 1.3 nM
  IC90, neutralization in TZM-bl cell-based assay: 6 nM
[8]
  IC50, neutralization of pseudotyped HIV-1: 0.36 nM
  IC90, neutralization of pseudotyped HIV-1: 4.3 nM
[9]
  IC90, neutralization in TZM-bl cell-based assay: 31 nM
[10]
  IC50, inhibition of Env-mediated cell-cell fusion: 2.6 nM
  IC50, neutralization of pseudotyped HIV-1: 0.11 nM
  IC90, inhibition of Env-mediated cell-cell fusion: 24 nM
  IC90, neutralization of pseudotyped HIV-1: 0.56 nM
[11]
  IC50, neutralization in TZM-bl cell-based assay: 0.39 nM
  IC90, neutralization in TZM-bl cell-based assay: 5.2 nM
[12]
  IC50, neutralization in TZM-bl cell-based assay: 21 nM
  IC90, neutralization in TZM-bl cell-based assay: > 167 nM
[13]
  IC50, neutralization in TZM-bl cell-based assay: 0.66 nM
[14]
  IC50, neutralization of pseudotyped HIV-1: 0.53 nM
  IC90, neutralization of pseudotyped HIV-1: 9.5 nM
[15]
  IC50, neutralization in TZM-bl cell-based assay: > 167 nM
  IC90, neutralization in TZM-bl cell-based assay: > 167 nM
[16]
  IC90, neutralization of pseudotyped HIV-1: 6.6 nM
[17]
  IC50, neutralization of pseudotyped HIV-1: 2 nM
  IC90, neutralization of pseudotyped HIV-1: 26 nM
[18]
  IC50, neutralization of pseudotyped HIV-1: 0.26 nM
  IC90, neutralization of pseudotyped HIV-1: 0.83 nM
[19]
  IC50, neutralization of pseudotyped HIV-1: 0.28 nM
  IC90, neutralization of pseudotyped HIV-1: 5.6 nM
[20]
  IC50, neutralization of pseudotyped HIV-1: 0.31 nM
  IC90, neutralization of pseudotyped HIV-1: 0.82 nM
[21]
  IC50, neutralization in TZM-bl cell-based assay: 3 nM
[22]
  IC90, neutralization in TZM-bl cell-based assay: 9.5 nM
[23]
  IC50, neutralization in TZM-bl cell-based assay: 4.2 nM
[24]
  IC50, neutralization of pseudotyped HIV-1: 0.25 nM
  IC90, neutralization of pseudotyped HIV-1: 2.6 nM
[25]
  IC90, neutralization in TZM-bl cell-based assay: 10 nM
[26]
  IC50, neutralization of pseudotyped HIV-1: 0.34 nM
  IC90, neutralization of pseudotyped HIV-1: 4.4 nM
[27]
  IC50, neutralization of pseudotyped HIV-1: 0.11 nM
  IC90, neutralization of pseudotyped HIV-1: 0.85 nM

## D1D2 (receptor)
gp140Con-s (HIV-1) [29]
  EC50 (read off the curve) of the enhancement of m36h1Fc binding: 10 to 100 nM

— patent US20160039904A1, “STABILIZED SINGLE HUMAN CD4 DOMAINS AND FUSION PROTEINS” (priority 2013, published 2016)
